Patent publication US20260250338A1

Target: CD16aF allelic variant of CD16a expressed on Jurkat cells (human) (UniProt P08637)
Experiment: flow cytometry on Jurkat cells expressing CD16aF, conditions as in Example 2

Sequence of CD16aF allelic variant of CD16a expressed on Jurkat cells (human) (P08637 17-254, change not shown): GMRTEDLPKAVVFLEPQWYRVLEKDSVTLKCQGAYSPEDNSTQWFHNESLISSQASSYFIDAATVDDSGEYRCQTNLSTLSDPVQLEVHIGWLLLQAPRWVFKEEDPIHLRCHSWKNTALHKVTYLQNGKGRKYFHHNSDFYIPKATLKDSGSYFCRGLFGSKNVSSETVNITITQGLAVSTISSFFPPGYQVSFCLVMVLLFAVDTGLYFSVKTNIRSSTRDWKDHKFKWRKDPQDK

EC50: 23.2 nM
B1: Construct 25 (SEQ ID NO: 94), CD117 × CD16a, CD117 binder SEQ ID NO: 84 N-terminal of DARPin #7 (designed binder)
chain: MRGSHHHHHHGSDLGQKLLKAAQYGQDDEVRILLAAGADVNAKDWAGKTPLHVAAEAGHLEIVEVLLKAGADVNAKDKAGETPLHLAAEQGHLEIVEVLLKAGADVNAQDEWGQTPADLAAYYGLEDIAEVLQKAAGSPTPTPTTPTPTPTTPTPTPTGSDLGQKLLRAAKKGQDDEVRELLKAGADVNAKDEQGWTPLHNAAWKGHLEIVEVLLKAGADVNAKDVFDWTPLHVAAHFGHLEIVEVLLKAGADVNAQDRAGETPADLAAQAGHEDIAEVLQKAA
